# US20050272636A1, “Treatment and diagnosis of a reproductive disorder by measuring or inhibiting interferon-gamma” (Adelaide Research & Innovation Pty Ltd., priority 2002, published 2005)
# T1: IFNγ (Mus musculus, UniProt P01580)
# T1 construct: purchased R&D Systems, UK
# T1 sequence (P01580 23-155): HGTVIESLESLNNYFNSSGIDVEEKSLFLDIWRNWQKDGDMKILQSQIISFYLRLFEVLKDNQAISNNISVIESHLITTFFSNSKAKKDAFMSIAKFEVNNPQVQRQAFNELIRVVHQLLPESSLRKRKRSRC
# B1: IFN-γ: recombinant human IFN-γ (R & D Systems), used on human cervical epithelial cells in Example 4 (protein, UniProt P01579 24-161, looked up)
# Interferon gamma: QDPYVKEAENLKKYFNAGHSDVADNGTLFLGILKNWKEESDRKIMQSQIVSFYFKLFKNFKDDQSIQKSVETIKEDMNVKFFNSNKKKRDDFEKLTNYSVTDLNVQRKAIHELIQVMAELSPAAKTGKRKRSQMLFRG
# B2: rhTGFβ3: recombinant human TGFβ3 (OSI Pharmaceuticals) (protein, UniProt P10600 301-412, looked up)
# Transforming growth factor …: ALDTNYCFRNLEENCCVRPLYIDFRQDLGWKWVHEPKGYYANFCSGPCPYLRSADTTHSTVLGLYNTLNPEASASPCCVPQDLEPLTILYYVGRTPKVEQLSNMVVKSCKCS
# modifications: Transforming growth factor beta-3
# B3: rhTGFβ2: recombinant human TGFβ2 (R&D Systems) (protein, UniProt P61812 303-414, looked up)
# Transforming growth factor …: ALDAAYCFRNVQDNCCLRPLYIDFKRDLGWKWIHEPKGYNANFCAGACPYLWSSDTQHSRVLSLYNTINPEASASPCCVSQDLEPLTILYYIGKTPKIEQLSNMIVKSCKCS
# modifications: Transforming growth factor beta-2
# Legend:
# [1] = system: human cervical epithelial cells; experiment: Effect of IFN-γ and TGFβ on GM-CSF synthesis in human cervical epithelial cells (Example 4); assay type: cell-based; settings: 5.0 ng/ml recombinant human IFN-γ; 12 h; ELISA
# Experimental: Human cervical epithelial cells were cultured using a modification of the technique described by Rheinwald et al., Cell 1975 3: 33143 (1975). Cervical biopsies were obtained from consenting women undergoing hysterectomy for non-malignant gynaecological indications. All the women were pre-menopausal, but no distinction was made regarding the stage of their menstrual cycle at the time of surgery. The cervical biopsies were placed in ice-cold Hank's balanced salt solution for transport to the laboratory, washed twice in antibiotic-containing medium, and incubated overnight at 4° C. in Dulbecco's modified Eagle's medium (DMEM) containing 5 U dispase (Boehringer Mannheim). Large sheets of keratinocytes were mechanically stripped from the biopsy using sterile forceps after a subsequent 1 h incubation at room temperature. Disaggregation into single cells was facilitated by incubation in DMEM/0.25% trypsin/0.05% collagenase for 30 minutes at 37° C., and repeated aspiration using a needle and syringe. […]
# Supernatant was collected 12 hours later and assayed for GM-CSF activity using a commercial human GM-CSF specific ELISA (R & D Systems) according to the manufacturer's instructions. The GM-CSF content of post-treatment supernatants were normalised to the GM-CSF content of corresponding 12 h (baseline) supernatants and expressed as a percentage of control values.
# [2] = molecular target: T1, IFNγ; experiment: Penicillin inhibition of the IFNγ effect on GM-CSF production in uterine epithelial cells (Example 2); assay type: cell-based; settings: DMEM +penicillin versus DMEM -penicillin
# Experimental: Uterine Epithelial Cell Cultures. Uterine epithelial cells prepared as previously described (Robertson et al., Biol Reprod 46:1069-1079 (1992)) were pooled from 4-6 estrous C57B1/6 or C57B1/6×Balb/c F1 mice and plated in 1 ml culture wells (Nunc, Roskilde, Germany) at 1-2×10^5 cells per ml in 500 μl of Dulbecco's modified Eagles medium containing 10% FCS, […] streptomycin sulphate and […] benzyl penicillin (DMEM +penicillin). After 4 h incubation at 37° C. in 5% CO2 to allow cell adherence, a further 500 μl of DMEM +penicillin, or DMEM +penicillin plus recombinant mouse IFNγ (rIFNγ) and/or recombinant human TGFβ1 (rTGFβ), were added. In some experiments, penicillin-free DMEM (DMEM −penicillin) was used throughout. Culture supernatants were collected and replaced with fresh medium at 16 hours, then collected again 24 hours later, at which time GM-CSF content was determined and adherent cells were quantified as previously described (Robertson et al., Biol Reprod 46:1069-1079 (1992)). […]
# GM-CSF bioassay: GM-CSF was assayed using the GM-CSF dependant cell line FD 5/12, essentially as previously described (Robertson et al., Biol Reprod 46:1069-1079 (1992)). Cell proliferation was determined by pulsing with 1 μCi of [^3H]-thymidine per well for the last 6 h of the assay. […] GM-CSF production is expressed as ng GM-CSF/10^5 cells/24 h. […]
# [3] = system: IFNγ; experiment: Inhibitors and antagonists counteracting the GM-CSF-inhibiting actions of IFNγ in uterine epithelial cells (Example 3); assay type: cell-based, mouse; settings: for effect of TGFβ isoform on the inhibitory effect of IFNγ on GM-CSF synthesis: added in combination with IFNγ, dose-responsive, 5 ng/ml greater effect than 0.5 ng/ml
# Experimental: Several inhibitors and antagonists of IFNγ were tested for their ability to counteract the GM-CSF-inhibiting actions of IFNγ in epithelial cells.
# Uterine Epithelial Cell Cultures. Uterine epithelial cells prepared by pancreatin-trypsin digest as previously described (Robertson et al., (1992) Biol. Reprod. 46:1069-1079) were pooled from 4-6 estrous adult C57B1/6×CBA F1 female mice and plated in 1 ml culture wells (Nunc, Roskilde, Germany) at 1-2×10^5 cells per ml in 500 μl of RPMI containing 10% FCS and streptomycin (RPMI-FCS). Penicillin was omitted from culture media except where specified. After 4 h incubation at 37° C. in 5% CO2 to allow cell adherence, a further 500 μl of cytokines or antibodies in RPMI-FCS, or RPMI-FCS alone, were added. Cytokine treatments included recombinant mouse interferon-γ (rmIFNγ; R&D Systems), recombinant human transforming growth factor β1 (rhTGFβ1, R&D Systems), rhTGFβ2 (R&D Systems), rhTGFβ3 (OSI Pharmaceuticals). Antibody treatments included goat anti-mouse IFNγ receptor 1 (αIFNγR; R&D Systems AF1026) and hamster anti-mouse IFNγ (αIFNγ; R&D Systems MAB4851). Culture supernatants were collected and replaced with fresh complete RPMI-FCS alone at 16 hours, then collected again 24 hours later, at which time adherent cells were quantified as previously described (Robertson et al., (1992) Biol. Reprod. 46:1069-1079). The GM-CSF content of 24 h supernatants was determined by GM-CSF bioassay or immunoassay. All treatments were performed in duplicate or triplicate.
# GM-CSF bioassay and immunoassay: Bioactive GM-CSF was assayed using the GM-CSF dependant cell line FD 5/12, essentially as previously described (Robertson et al., (1992) Biol. Reprod. 46:1069-1079). Cell proliferation was determined by the addition of 1 μCi of [^3H]-thymidine per well for the last 6 h of the assay. The minimal detectable amount of GM-CSF was […] The identity of the bioactivity in uterine epithelial cell cultures was confirmed using a goat polyclonal antibody to murine GM-CSF kindly provided by J. Schreurs (DNAX, Palo Alto, Calif.) as previously described (Robertson et al., (1992) Biol. Reprod. 46:1069-1079). GM-CSF immunoactivity was in some experiments measured by commercial mouse GM-CSF specific ELISA (R & D Systems) according to the manufacturer's instructions.
# [4] = system: mice; experiment: Effect of IFN-γ treatment on pregnancy outcome in mice (Example 8); assay type: in vivo; settings: for effect on the detrimental effects of IFN-γ on pregnancy outcome: implantation rate, viable versus resorbing fetuses, fetal and placental weight on day 18
# Experimental: Mice are housed under specific pathogen-free conditions at the University of Adelaide Medical School Animal House on a 12:12 light-dark cycle, and administered food and water ad libitum. Adult Balb/c×C57B1/6 F1 females (7-10 weeks old) are synchronised into estrus by caging in close proximity to males. Estrus is identified on the basis of presence of cornified epithelial cells in vaginal smears prepared at 0900-1000 h daily and examined by phase contrast microscopy. On the day of estrus (day 0) females are caged with proven fertile Balb/k males for natural mating. The day of sighting a vaginal plug is nominated day 1 of pregnancy.
# Mice are randomly allocated to one of four groups and treated as follows: Group 1 (100 ng IFN-γ) mice receive three intraperitoneal injections of […] recombinant mouse IFN-γ (rmIFN-γ, R&D Systems) in 200 μl PBS containing 1% bovine serum albumin (PBS-BSA) at 1700 h on day 0, at 1000 h on day 1 and 1700hon day 1.
# Group 2 (250 ng IFN-γ) receive three injections of 250 ng rmIFN-γ according to the same time schedule.
# Group 3 (control) receive three injections of PBS-BSA instead of IFN-γ according to the same time schedule.
# Group 4 (comparison) Mice are mated but otherwise remain untreated.
# Twenty mice per group are used to ensure statistical significance in treatment effects.
# Alternatively, a transcervical delivery route for IFN-γ is used. Treatments are delivered directly into the uterine lumen with the aid of a tom-cat catheter (Sovereign, St Louis Mo.). In mated animals this requires removal of vaginal plugs using forceps to allow transcervical access. Mice are randomly allocated to one of four groups and treated as follows: the first group (100 ng IFN-γ) mice receive three transcervical injections of […] recombinant mouse IFN-γ (rmIFN-γ, R&D Systems) in 200 μl PBS containing 1% bovine serum albumin (PBS-BSA) at 1700 h on day 0, at 1000 h on day 1 and 1700 h on day 1. The second group (25 ng IFN-γ) receive three injections of 25 ng rmIFN-γ according to the same time schedule. The third group (control) receive three injections of PBS-BSA instead of IFN-γ according to the same time schedule. For comparison, a fourth group of mice are mated but otherwise would remain untreated. Twenty mice per group are used to ensure statistical significance in treatment effects.
# Pregnant females are sacrificed by cervical dislocation at 1000 h -1200 h on day 18 of gestation. The intact uterus of each female is removed and total, viable and resorbing implantation sites counted. Each viable fetus is dissected from the amniotic sac and umbilical cord, and fetuses and placentae weighed. Placental tissues are fixed in paraformaldehyde and processed for histological staining of paraffin sections, using Masson's trichrome stain.
molecule,measurement,setting,value
"IFN-γ: recombinant human IFN-γ (R & D Systems), used on human cervical epithelial cells in Example 4",effect of IFN-γ on GM-CSF synthesis,[1],inhibited GM-CSF synthesis
"CC1(C)S[C@@H]2[C@H](NC(=O)Cc3ccccc3)C(=O)N2[C@H]1C(=O)O [penicillin, benzyl penicillin, reference compound]",ability of penicillin to inhibit the effect of IFNγ on GM-CSF production,[2],inhibit the effect of IFNγ
same,IFNγ concentration required to inhibit GM-CSF synthesis after addition of penicillin,[3]; penicillin at 60 μg/ml,≥ 2.5 ng/mL
same,effect of penicillin on the GM-CSF inhibiting activity of IFNγ,[3]; penicillin at 60 μg/ml,antagonised the GM-CSF inhibiting activity of IFNγ
B1,effect of IFN-γ on pregnancy outcome,"[4]; peritoneal cavity or uterine lumen, day of estrus and day 1, assessed day 18",impairs pregnancy outcome
B2,effect on the detrimental effects of IFN-γ on pregnancy outcome,[4],reverses the detrimental effects of IFN-γ
same,effect of TGFβ isoform on the inhibitory effect of IFNγ on GM-CSF synthesis,[3],counteracted the inhibitory effect
B3,effect on the detrimental effects of IFN-γ on pregnancy outcome,[4],reverses the detrimental effects of IFN-γ
same,effect of TGFβ isoform on the inhibitory effect of IFNγ on GM-CSF synthesis,[3],counteracted the inhibitory effect
